{"source": "patent US20180291082A1", "experiment_in_all_cases": "UV-ligand exchange, anti-b2m ELISA; exchange yield grade (+ >10%, ++ >20%, +++ >50, ++++ >75%)", "key": {"[1]": {"target": "HLA-A*01:01 (human)", "conditions": "remark: other sources report otherwise"}, "[2]": {"target": "HLA-A*03:01 (human)"}, "[3]": {"target": "HLA-B*44:02 (human)"}}, "note": "Where two headings read alike, the source gives them in different places.", "data": [{"binder": "ITEKNSGLY", "values": [{"measurement": "peptide exchange yield", "setting": "[1]", "result": "50 to 75", "unit": "%"}]}, {"binder": "KITDFGLAK (modifications not checked)", "values": [{"measurement": "peptide exchange yield", "setting": "[2]", "result": "20 to 50", "unit": "%"}]}, {"binder": "AEGGKVPIKW (modifications not checked)", "values": [{"measurement": "peptide exchange yield", "setting": "[3]", "result": "50 to 75", "unit": "%"}]}, {"binder": "QQATPGPAY", "values": [{"measurement": "peptide exchange yield", "setting": "[3]; remark: other sources report otherwise", "result": "20 to 50", "unit": "%"}]}]}
